From US20210371508A1

Tests used:
[1] = biological target: transferrin receptor 1 (TFRC) (human) (UniProt P02786); assay: IP with IgG control, lysate of 231 cells with V5-NMES1 OE pre-incubated with NM-1; western blot for TFRC
[2] = biological target: transferrin receptor 1 (TFRC) (human) (UniProt P02786); assay: IP with IgG control, lysate of 231 cells with V5-NMES1 OE pre-incubated with isotype ctrl; western blot for TFRC
[3] = biological target: V5-hNMES1 (human) (UniProt Q9C002); assay: IP with IgG control, lysate of 231 cells with V5-NMES1 OE pre-incubated with NM-1; western blot for NMES1; hardly any band
Sequence of V5-hNMES1 (human) (Q9C002 whole entry): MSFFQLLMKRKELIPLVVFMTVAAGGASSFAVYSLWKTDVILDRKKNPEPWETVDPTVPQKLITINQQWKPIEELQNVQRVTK

[4] = biological target: V5-hNMES1 (human) (UniProt Q9C002); assay: IP with IgG control, lysate of 231 cells with V5-NMES1 OE pre-incubated with isotype ctrl; western blot for NMES1; a band is visible in this control lane

Sequence of transferrin receptor 1 (TFRC) (human) (P02786 whole entry): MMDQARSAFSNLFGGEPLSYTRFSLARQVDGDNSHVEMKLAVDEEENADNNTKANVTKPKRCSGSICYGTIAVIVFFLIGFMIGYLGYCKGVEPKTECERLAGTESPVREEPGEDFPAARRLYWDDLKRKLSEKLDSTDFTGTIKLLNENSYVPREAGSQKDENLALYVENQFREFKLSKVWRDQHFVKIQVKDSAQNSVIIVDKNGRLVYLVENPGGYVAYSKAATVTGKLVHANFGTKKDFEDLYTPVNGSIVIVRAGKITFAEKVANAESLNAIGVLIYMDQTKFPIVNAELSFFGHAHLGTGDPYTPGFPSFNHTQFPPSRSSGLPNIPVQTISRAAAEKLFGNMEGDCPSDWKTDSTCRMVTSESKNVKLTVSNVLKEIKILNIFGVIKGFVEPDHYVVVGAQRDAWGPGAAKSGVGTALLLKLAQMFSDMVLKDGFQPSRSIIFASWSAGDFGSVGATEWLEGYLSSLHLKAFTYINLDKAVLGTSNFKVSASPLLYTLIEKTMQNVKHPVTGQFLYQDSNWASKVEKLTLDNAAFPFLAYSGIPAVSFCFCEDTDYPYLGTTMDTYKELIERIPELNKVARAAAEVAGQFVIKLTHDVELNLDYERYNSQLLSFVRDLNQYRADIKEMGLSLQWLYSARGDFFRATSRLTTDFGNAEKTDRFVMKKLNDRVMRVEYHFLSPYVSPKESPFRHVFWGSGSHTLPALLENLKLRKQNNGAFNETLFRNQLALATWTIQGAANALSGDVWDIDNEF

number under the TFRC band (band intensity, not named on the sheet) [1]: 27.4
number under the TFRC band (band intensity, not named on the sheet) [2]: 24
number under the NMES1 band (band intensity, not named on the sheet) [3]: 15.8
number under the NMES1 band (band intensity, not named on the sheet) [4]: 38.5
Substance: isotype IgG control (antibody)
